The supplement of paper PMC9732359
± gives the uncertainty stated by the source.

Experiment: protein stability index of a GFP-peptide fusion (yeast GPS) (PSI 1-4); higher = more stable; sorted into four equal gates, so the index is relative within each strain
How it was run: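 Mid-log yeast cultures in leucine-free medium, carrying a pooled plasmid library, were sorted into four equal gates by their GFP/Cherry fluorescence ratio. Each plasmid expressed Cherry along with GFP fused upstream of a tiled 17-residue yeast protein peptide. Plasmids recovered from each gate were PCR-amplified and Illumina-sequenced, with reads assigned to strains by barcodes. The protein stability index was obtained by summing each gate's read frequency weighted by its gate number.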

Sequence	protein stability index (doa10∆)	protein stability index (pdr5∆)	protein stability index (san1∆)	protein stability index (ubr1∆)
ALSQSSLLKTKLKQQSS [RRI1]	2.13 ± 0.037	2.51 ± 0.035	2.22 ± 0.048	2.26 ± 0.035
NTAAALVSLLDENDSKK [YAR002W/NUP60]	3.13 ± 0.097	2.95 ± 0.12	3.01 ± 0.087	3.01 ± 0.099
EDPKRRADTMDFKTDVD [YJL039C/NUP192]	3.29 ± 0.1	3.51 ± 0.086	3.4 ± 0.096	3.24 ± 0.1
ESDTGLAPSHLWDIMGD [RPT1]	2.91 ± 0.16	–	3.06 ± 0.12	–
PESQGQHEQQKQQEQLE [YMR153W/NUP53]	3.4 ± 0.083	3.37 ± 0.066	3.24 ± 0.06	3.26 ± 0.072
SIRSRRPYQVNVLIGGY [PRE1]	2.34 ± 0.17	2.88 ± 0.09	1.71 ± 0.19	3.04 ± 0.1
ILSTTLDPTDDEGHVLK [SIN4]	2.58 ± 0.15	2.64 ± 0.11	3.01 ± 0.14	3 ± 0.12
DRFPLKLREPVARFLHF [ITC1]	1.69 ± 0.076	1.7 ± 0.067	1.79 ± 0.12	1.91 ± 0.046
RDLGDDRVFNVPTIGVV [YJR042W/NUP85]	–	–	3.41 ± 0.19	–
MSLEPTQTVSGTPPMLH [DSN1]	2.78 ± 0.14	3 ± 0.12	2.92 ± 0.22	3 ± 0.1
SLTYKKISLRDICLKLN [RPN3]	2.38 ± 0.05	2.17 ± 0.047	1.44 ± 0.13	2.05 ± 0.04
LSTSEDVSIEELLREWL [IRR1]	3.25 ± 0.16	2.31 ± 0.21	–	1.53 ± 0.15
KSKFNKSNRSYSIALSN [GAL11]	2.85 ± 0.075	2.47 ± 0.13	3.1 ± 0.12	2.81 ± 0.064
VTSKVRNAEFKVSKNST [YMR153W/NUP53]	3.08 ± 0.15	3.49 ± 0.19	2.98 ± 0.11	3.28 ± 0.29
LAQKKAHLAEIQLNGGS [RPL3]	–	–	–	2.85 ± 0.12
PFETFDHASIRRGYQVY [CYT1]	2.68 ± 0.048	2.65 ± 0.044	2.82 ± 0.047	2.9 ± 0.032
ISTLFQRDRHTLAYDRG [PRP8]	2.58 ± 0.14	3.21 ± 0.13	2.68 ± 0.082	2.79 ± 0.058
PHGISVFLSNLVETCLN [BRR2]	1.39 ± 0.043	1.57 ± 0.035	1.48 ± 0.07	1.61 ± 0.03
TSFDRTKKTITPMGGFV [RPL3]	3.04 ± 0.12	3.03 ± 0.12	2.79 ± 0.089	3.21 ± 0.24
GEILLPDIADIPRTFRT [SNF5]	2.82 ± 0.14	3.18 ± 0.12	3.19 ± 0.12	3.05 ± 0.1
AVAVVVDPIQSVKGKVV [RPN11]	2.22 ± 0.1	2.64 ± 0.14	2.29 ± 0.094	2.84 ± 0.18
AIPSRMTVAHLIECLLS [RPB2]	1.39 ± 0.098	1.85 ± 0.094	1.39 ± 0.25	1.67 ± 0.09
